From the supplement of paper PMC10567573

B1: TRIB1 (parent)
chain: EIGTSDQIVPEYQEDSDISSFFC
B2: FCHO1 (parent)
chain: DKLALCHLELTRKLQDLIKDVLRY

Variants of: B1
Test: protein stability index of a GFP-peptide fusion (GPS, HEK-293T) (PSI 1-6); higher = more stable
Conditions: c terminus: native
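Note: lentivirally expressed fusions sorted by FACS into six bins by GFP to DsRed ratio, PSI derived from sequencing read proportions per bin multiplied by bin number.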

Row | Variant | protein stability index
1 | EIGESDQIVPEYQEDSDISSFFC [T4E] | 2.86
2 | EIGGSDQIVPEYQEDSDISSFFC [T4G] | 3.12
3 | EIGQSDQIVPEYQEDSDISSFFC [T4Q] | 2.25
4 | EIGISDQIVPEYQEDSDISSFFC [T4I] | 2.62
5 | EIGNSDQIVPEYQEDSDISSFFC [T4N] | 2.39
6 | EIGPSDQIVPEYQEDSDISSFFC [T4P] | 3.22
7 | EIGHSDQIVPEYQEDSDISSFFC [T4H] | 2.55
8 | EIGTSDQIVPEYQEDSDISSFFW [C23W] | 1.95
9 | EIGTSDQIVPEYQEDSDISSFFF [C23F] | 2.29
10 | EIGTSDQIVPEYQEDSDISSFFS [C23S] | 2.8
11 | EIGTSDQIVPEYQEDSDISSFFA [C23A] | 3.08
12 | EIGTSDQIVPEYQEDSDISSFFM [C23M] | 1.73
13 | EIGTSDQIVPEYQEDSDISSFFT [C23T] | 2.1
14 | EIGTSDQIVPEYQEDSDISSFFP [C23P] | 3.44
15 | EIWTSDQIVPEYQEDSDISSFFC [G3W] | 2.18
16 | EIVTSDQIVPEYQEDSDISSFFC [G3V] | 2.78
17 | EISTSDQIVPEYQEDSDISSFFC [G3S] | 2.57
18 | EIGTPDQIVPEYQEDSDISSFFC [S5P] | 3.07
19 | EIGTCDQIVPEYQEDSDISSFFC [S5C] | 2.72
20 | EIGTADQIVPEYQEDSDISSFFC [S5A] | 2.81
21 | EIGTKDQIVPEYQEDSDISSFFC [S5K] | 3.47
22 | EIGTSDQIVPEYQEDSAISSFFC [D17A] | 3.21
23 | EIGTSDQIVPEYQEDSKISSFFC [D17K] | 4.29
24 | EIGTSDQIVPEYQEDSWISSFFC [D17W] | 2.42

Row | Variant | protein stability index
25 | EIGTSDQIVPEYQEDSSISSFFC [D17S] | 3.13
26 | EIGTSDQIVPEYQEDSGISSFFC [D17G] | 4.13
27 | EIGTSDQIVPEYQEDSDISSAFC [F21A] | 3.98
28 | EIGTSDQIVPEYQEDSDISSSFC [F21S] | 4.08
29 | EIGTSDQIVPEYQEDSDISSPFC [F21P] | 4.6
30 | EIGTSDQIVPEYQEDSDISSYFC [F21Y] | 2.64
31 | EIGTSDQIVPEYQEQSDISSFFC [D15Q] | 2.92
32 | EIGTSDQIVPEYQECSDISSFFC [D15C] | 2.62
33 | EIGTSDQIVPEYQEVSDISSFFC [D15V] | 2.81
34 | EIGTSDQIVPEYQEKSDISSFFC [D15K] | 3.42
35 | EIGTSDQIVPEYQEFSDISSFFC [D15F] | 2.24
36 | EIGTSDQICPEYQEDSDISSFFC [V9C] | 5.31
37 | EIGTSDQIGPEYQEDSDISSFFC [V9G] | 5.29
38 | EIGTSDQIPPEYQEDSDISSFFC [V9P] | 5.38
39 | EIGTSDQIIPEYQEDSDISSFFC [V9I] | 4.93
40 | EIGTSDQIRPEYQEDSDISSFFC [V9R] | 4.88
41 | EIGTSDPIVPEYQEDSDISSFFC [Q7P] | 5.3
42 | EIGTSDVIVPEYQEDSDISSFFC [Q7V] | 5.02
43 | EIGTSDCIVPEYQEDSDISSFFC [Q7C] | 5.1
44 | EIGTSDHIVPEYQEDSDISSFFC [Q7H] | 5
45 | EIGTSDQIVPEFQEDSDISSFFC [Y12F] | 3.07
46 | EIGTSDQIVPERQEDSDISSFFC [Y12R] | 4.61
47 | EIGTSDQIVPSYQEDSDISSFFC [E11S] | 3.1
48 | EIGTSDQIVPFYQEDSDISSFFC [E11F] | 3.63

Row | Variant | protein stability index
49 | EIGTSDQIVPTYQEDSDISSFFC [E11T] | 2.77
50 | EIGTSDQIVPEYEEDSDISSFFC [Q13E] | 2.77
51 | EIGTSDQIVPEYIEDSDISSFFC [Q13I] | 2.36
52 | EIGTSDQIVPEYCEDSDISSFFC [Q13C] | 2.59
53 | EIGTSDQIVPEYHEDSDISSFFC [Q13H] | 2.24
54 | EIGTSDQIVPEYVEDSDISSFFC [Q13V] | 2.52
55 | EIGTSDQIVPEYREDSDISSFFC [Q13R] | 2.92
56 | EIGTSDQIVPEYAEDSDISSFFC [Q13A] | 2.54
57 | EIGTSDQIVSEYQEDSDISSFFC [P10S] | 5.59
58 | EIGTSDQIVQEYQEDSDISSFFC [P10Q] | 4.9
59 | EIGTSDQIVHEYQEDSDISSFFC [P10H] | 5.41
60 | EIGTSDQIVWEYQEDSDISSFFC [P10W] | 4.52
61 | EIGTSDQIVMEYQEDSDISSFFC [P10M] | 5.19
62 | EIGTSAQIVPEYQEDSDISSFFC [D6A] | 4.92
63 | EIGTSDQCVPEYQEDSDISSFFC [I8C] | 3.62
64 | EIGTSDQTVPEYQEDSDISSFFC [I8T] | 4.29
65 | EIGTSDQMVPEYQEDSDISSFFC [I8M] | 3.54
66 | EIGTSDQLVPEYQEDSDISSFFC [I8L] | 4.11
67 | EIGTSDQAVPEYQEDSDISSFFC [I8A] | 4.82
68 | EIGTSDQYVPEYQEDSDISSFFC [I8Y] | 5.08
69 | EIGTSDQIVPEYQVDSDISSFFC [E14V] | 2.08
70 | EIGTSDQIVPEYQKDSDISSFFC [E14K] | 4.03
71 | EIGTSDQIVPEYQRDSDISSFFC [E14R] | 4.42
72 | EIGTSDQIVPEYQEDSDISSFPC [F22P] | 4.55

Row | Variant | protein stability index
73 | EIGTSDQIVPEYQEDSDISSFEC [F22E] | 4.3
74 | EIGTSDQIVPEYQEDSDISSFQC [F22Q] | 4.82
75 | EIGTSDQIVPEYQEDSDISSFKC [F22K] | 5.29
76 | EFGTSDQIVPEYQEDSDISSFFC [I2F] | 2.59
77 | EPGTSDQIVPEYQEDSDISSFFC [I2P] | 4.12
78 | EEGTSDQIVPEYQEDSDISSFFC [I2E] | 3.64
79 | NIGTSDQIVPEYQEDSDISSFFC [E1N] | 2.32
80 | AIGTSDQIVPEYQEDSDISSFFC [E1A] | 2.7
81 | LIGTSDQIVPEYQEDSDISSFFC [E1L] | 2.21
82 | EIGTSDQIVPEYQEDSDLSSFFC [I18L] | 2.92
83 | EIGTSDQIVPEYQEDSDHSSFFC [I18H] | 3.69
84 | EIGTSDQIVPEYQEDSDPSSFFC [I18P] | 2.88
85 | EIGTSDQIVPEYQEDSDILSFFC [S19L] | 2.32
86 | EIGTSDQIVPEYQEDSDIGSFFC [S19G] | 2.05
87 | EIGTSDQIVPEYQEDSDISGFFC [S20G] | 3.23
88 | EIGTSDQIVPEYQEDSDISAFFC [S20A] | 3.2
89 | EIGTSDQIVPEYQEDIDISSFFC [S16I] | 2.04
90 | EIGTSDQIVPEYQEDVDISSFFC [S16V] | 3.02
91 | EIGTSDQIVPEYQEDKDISSFFC [S16K] | 3.5
92 | EIGTSDQIVPEYQEDGDISSFFC [S16G] | 2.9
93 | EIGTSDQIVPEYQEDNDISSFFC [S16N] | 2.68
94 | EIGTSDQIVPEYQEDMDISSFFC [S16M] | 2.45
95 | EIGTSDQIVPEYQEDRDISSFFC [S16R] | 4.11
96 | EIGTSDQIVPEYQEDWDISSFFC [S16W] | 2.27

Variants of: B2
Test: as above
Conditions: c terminus: a fixed tail appended

Row | Variant | protein stability index
97 | EKLALCHLELTRKLQDLIKDVLRY [D1E] | 2.15
